Data as given in IntAct's records for PubMed 31515488.

B1: Cyclin-D1-binding protein 1 (Homo sapiens), O95273 (parent)
chain: MASATAPAAAVPTLASPLEQLRHLAEELRLLLPRVRVGEAQETTEEFNREMFWRRLNEAAVTVSREATTLTIVFSQLPLPSPQETQKFCEQVHAAIKAFIAVYYLLPKDQGITLRKLVRGATLDIVDGMAQLMEVLSVTPTQSPENNDLISYNSVWVACQQMPQIPRDNKAAALLMLTKNVDFVKDAHEEMEQAVEECDPYSGLLNDTEENNSDNHNHEDDVLGFPSNQDLYWSEDDQELIIPCLALVRASKACLKKIRMLVAENGKKDQVAQLDDIVDISDEISPSVDDLALSIYPPMCHLTVRINSAKLVSVLKKALEITKASHVTPQPEDSWIPLLINAIDHCMNRIKELTQSELEL
partner: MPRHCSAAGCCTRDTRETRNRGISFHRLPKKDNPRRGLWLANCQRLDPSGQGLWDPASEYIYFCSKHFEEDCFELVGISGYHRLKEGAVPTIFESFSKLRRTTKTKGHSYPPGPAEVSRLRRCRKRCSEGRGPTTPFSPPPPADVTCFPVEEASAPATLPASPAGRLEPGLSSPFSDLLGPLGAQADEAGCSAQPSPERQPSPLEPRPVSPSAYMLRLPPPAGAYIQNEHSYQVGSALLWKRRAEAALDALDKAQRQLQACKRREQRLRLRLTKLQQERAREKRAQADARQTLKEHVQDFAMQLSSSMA
B2: Kelch-like protein 40 (Homo sapiens), Q2TBA0 (parent)
chain: MALGLEQAEEQRLYQQTLLQDGLKDMLDHGKFLDCVVRAGEREFPCHRLVLAACSPYFRARFLAEPERAGELHLEEVSPDVVAQVLHYLYTSEIALDEASVQDLFAAAHRFQIPSIFTICVSFLQKRLCLSNCLAVFRLGLLLDCARLAVAARDFICAHFTLVARDADFLGLSADELIAIISSDGLNVEKEEAVFEAVMRWAGSGDAEAQAERQRALPTVFESVRCRLLPRAFLESRVERHPLVRAQPELLRKVQMVKDAHEGRITTLRKKKKGKDGAGAKEADKGTSKAKAEEDEEAERILPGILNDTLRFGMFLQDLIFMISEEGAVAYDPAANECYCASLSNQVPKNHVSLVTKENQVFVAGGLFYNEDNKEDPMSAYFLQFDHLDSEWLGMPPLPSPRCLFGLGEALNSIYVVGGREIKDGERCLDSVMCYDRLSFKWGESDPLPYVVYGHTVLSHMDLVYVIGGKGSDRKCLNKMCVYDPKKFEWKELAPMQTARSLFGATVHDGRIIVAAGVTDTGLTSSAEVYSITDNKWAPFEAFPQERSSLSLVSLVGTLYAIGGFATLETESGELVPTELNDIWRYNEEEKKWEGVLREIAYAAGATFLPVRLNVLCLTKM
B3: Protein-lysine N-methyltransferase EEF2KMT (Homo sapiens), Q96G04 (parent)
chain: MAPEENAGTELLLQSFERRFLAARTLRSFPWQSLEAKLRDSSDSELLRDILHKTVKHPVCVKHPPSVKYARCFLSELIKKHEAVHTEPLDELYEALAETLMAKESTQGHRSYLLPSGGSVTLSESTAIISYGTTGLVTWDAALYLAEWAIENPAVFTNRTVLELGSGAGLTGLAICKMCRPRAYIFSDCHSRVLEQLRGNVLLNGLSLEADITAKLDSPRVTVAQLDWDVATVHQLSAFQPDVVIAADVLYCPEAIMSLVGVLRRLAACREHQRAPEVYVAFTVRNPETCQLFTTELGRAGIRWEVEPRHEQKLFPYEEHLEMAMLNLTL
B4: NIF3-like protein 1 (Homo sapiens), Q9GZT8 (parent)
chain: MLSSCVRPVPTTVRFVDSLICNSSRSFMDLKALLSSLNDFASLSFAESWDNVGLLVEPSPPHTVNTLFLTNDLTEEVMEEVLQKKADLILSYHPPIFRPMKRITWNTWKERLVIRALENRVGIYSPHTAYDAAPQGVNNWLAKGLGACTSRPIHPSKAPNYPTEGNHRVEFNVNYTQDLDKVMSAVKGIDGVSVTSFSARTGNEEQTRINLNCTQKALMQVVDFLSRNKQLYQKTEILSLEKPLLLHTGMGRLCTLDESVSLATMIDRIKRHLKLSHIRLALGVGRTLESQVKVVALCAGSGSSVLQGVEADLYLTGEMSHHDTLDAASQGINVILCEHSNTERGFLSDLRDMLDSHLENKINIILSETDRDPLQVV

Variants of: B1
Settings: with thap7_human THAP7, Q9BT49

effect of a mutation on the interaction	Variant
disrupting interaction strength	I277T

Variants of: B2
Settings: with smip4_human SPMIP4, Q8N865
Chain of smip4_human SPMIP4, Q8N865 (Q8N865 whole entry): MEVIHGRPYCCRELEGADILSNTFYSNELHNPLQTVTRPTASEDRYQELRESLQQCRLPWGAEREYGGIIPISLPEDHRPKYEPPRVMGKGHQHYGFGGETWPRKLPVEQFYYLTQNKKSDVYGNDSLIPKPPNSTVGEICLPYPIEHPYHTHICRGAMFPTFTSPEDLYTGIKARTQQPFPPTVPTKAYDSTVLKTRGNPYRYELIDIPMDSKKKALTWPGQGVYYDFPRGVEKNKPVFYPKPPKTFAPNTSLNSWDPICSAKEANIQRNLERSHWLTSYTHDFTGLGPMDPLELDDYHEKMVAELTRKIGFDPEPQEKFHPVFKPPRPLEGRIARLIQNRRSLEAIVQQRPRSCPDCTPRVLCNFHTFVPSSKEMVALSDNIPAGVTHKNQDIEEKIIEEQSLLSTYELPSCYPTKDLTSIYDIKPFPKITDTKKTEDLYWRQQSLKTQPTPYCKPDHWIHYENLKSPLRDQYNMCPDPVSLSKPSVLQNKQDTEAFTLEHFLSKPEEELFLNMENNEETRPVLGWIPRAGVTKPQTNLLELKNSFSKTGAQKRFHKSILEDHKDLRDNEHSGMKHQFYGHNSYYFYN

effect of a mutation on the interaction	Variant
with no effect	D484N

Variants of: B3
Settings: with prdc1_human PRTFDC1, Q9NRG1
Chain of prdc1_human PRTFDC1, Q9NRG1 (Q9NRG1 whole entry): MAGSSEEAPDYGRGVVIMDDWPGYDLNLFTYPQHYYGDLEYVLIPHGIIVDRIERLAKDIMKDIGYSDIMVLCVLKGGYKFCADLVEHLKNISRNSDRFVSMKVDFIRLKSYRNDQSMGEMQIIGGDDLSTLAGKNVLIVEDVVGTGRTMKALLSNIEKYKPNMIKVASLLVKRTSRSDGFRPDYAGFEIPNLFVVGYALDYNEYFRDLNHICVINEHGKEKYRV

effect of a mutation on the interaction	Variant
with no effect	S123C

Variants of: B4
Settings: with zn446_human ZNF446, Q9NWS9
Chain of zn446_human ZNF446, Q9NWS9 (Q9NWS9 whole entry): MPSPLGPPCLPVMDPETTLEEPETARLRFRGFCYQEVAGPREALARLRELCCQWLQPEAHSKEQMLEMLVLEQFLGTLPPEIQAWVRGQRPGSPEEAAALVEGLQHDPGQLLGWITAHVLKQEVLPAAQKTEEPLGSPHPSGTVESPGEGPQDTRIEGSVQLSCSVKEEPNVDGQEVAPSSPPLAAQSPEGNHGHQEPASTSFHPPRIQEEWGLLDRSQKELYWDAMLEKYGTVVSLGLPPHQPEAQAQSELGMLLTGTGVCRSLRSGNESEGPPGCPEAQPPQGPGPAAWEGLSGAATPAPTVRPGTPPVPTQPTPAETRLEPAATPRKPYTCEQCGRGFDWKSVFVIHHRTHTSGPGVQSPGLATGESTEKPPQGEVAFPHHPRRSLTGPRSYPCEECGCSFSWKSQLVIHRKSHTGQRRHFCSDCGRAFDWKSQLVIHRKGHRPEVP

effect of a mutation on the interaction	Variant
with no effect	T324I

Variants of: B4
Settings: with rgs20_human RGS20, O76081
Chain of rgs20_human RGS20, O76081 (O76081 whole entry): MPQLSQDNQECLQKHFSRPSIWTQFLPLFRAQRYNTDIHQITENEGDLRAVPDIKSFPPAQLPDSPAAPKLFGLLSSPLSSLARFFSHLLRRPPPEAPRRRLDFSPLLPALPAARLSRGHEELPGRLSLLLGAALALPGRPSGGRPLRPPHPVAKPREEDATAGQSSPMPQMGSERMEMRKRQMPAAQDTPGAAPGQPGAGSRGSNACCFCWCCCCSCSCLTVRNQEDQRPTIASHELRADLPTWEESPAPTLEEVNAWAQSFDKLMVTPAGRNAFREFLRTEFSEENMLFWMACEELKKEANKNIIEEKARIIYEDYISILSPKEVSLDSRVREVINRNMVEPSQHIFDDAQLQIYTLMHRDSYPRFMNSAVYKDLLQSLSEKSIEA

effect of a mutation on the interaction	Variant
with no effect	T324I
